This passage reports EOP (efficacy of propagation) of bIL67 phage on IL1403 transformed with pIL261, against IL1403 without plasmids and EOP (efficacy of propagation) of bIL67 phage on IL1403 transformed with pIL7, against IL1403 without plasmids results from patent US20020164732A1.

Assay [1] addresses HsdM subunit encoded by the chromosome of the IL1403 strain (L. lactis ssp lactis (strain IL1403)). The assay is described as follows: cell-based or functional assay.
Assay [2] deals with HsdR subunit encoded by the chromosome of the IL1403 strain (L. lactis ssp lactis (strain IL1403)). The assay is described as follows: cell-based or functional assay.
Sequence of HsdR subunit encoded by the chromosome of the IL1403 strain (L. lactis ssp lactis (strain IL1403)) (chain, as listed by the source limits assumed): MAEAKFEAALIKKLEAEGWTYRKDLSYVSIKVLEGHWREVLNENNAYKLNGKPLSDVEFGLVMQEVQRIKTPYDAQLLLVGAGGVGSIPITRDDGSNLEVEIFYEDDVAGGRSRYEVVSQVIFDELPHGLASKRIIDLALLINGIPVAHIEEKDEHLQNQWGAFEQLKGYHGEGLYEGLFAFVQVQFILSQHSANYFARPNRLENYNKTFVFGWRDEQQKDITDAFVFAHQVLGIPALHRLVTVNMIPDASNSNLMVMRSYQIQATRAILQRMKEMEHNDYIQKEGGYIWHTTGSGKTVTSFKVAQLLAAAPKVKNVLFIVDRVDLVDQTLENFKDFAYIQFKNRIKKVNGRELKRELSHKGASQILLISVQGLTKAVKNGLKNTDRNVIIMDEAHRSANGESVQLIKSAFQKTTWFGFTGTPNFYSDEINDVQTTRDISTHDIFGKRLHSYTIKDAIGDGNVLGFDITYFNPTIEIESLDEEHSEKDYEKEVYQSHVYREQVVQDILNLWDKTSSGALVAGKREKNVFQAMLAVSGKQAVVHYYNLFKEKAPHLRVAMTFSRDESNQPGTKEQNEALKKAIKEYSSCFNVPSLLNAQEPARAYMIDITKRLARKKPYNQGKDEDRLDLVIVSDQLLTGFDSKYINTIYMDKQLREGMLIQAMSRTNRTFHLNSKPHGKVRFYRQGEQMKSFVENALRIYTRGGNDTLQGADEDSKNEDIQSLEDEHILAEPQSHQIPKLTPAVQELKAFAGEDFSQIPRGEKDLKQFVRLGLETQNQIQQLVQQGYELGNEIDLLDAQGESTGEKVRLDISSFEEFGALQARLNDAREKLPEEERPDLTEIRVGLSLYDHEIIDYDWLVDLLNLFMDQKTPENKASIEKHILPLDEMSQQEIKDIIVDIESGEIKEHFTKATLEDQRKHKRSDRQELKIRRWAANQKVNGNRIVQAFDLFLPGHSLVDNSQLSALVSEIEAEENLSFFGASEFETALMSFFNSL

Sequence of HsdM subunit encoded by the chromosome of the IL1403 strain (L. lactis ssp lactis (strain IL1403)) (chain, as listed by the source limits assumed): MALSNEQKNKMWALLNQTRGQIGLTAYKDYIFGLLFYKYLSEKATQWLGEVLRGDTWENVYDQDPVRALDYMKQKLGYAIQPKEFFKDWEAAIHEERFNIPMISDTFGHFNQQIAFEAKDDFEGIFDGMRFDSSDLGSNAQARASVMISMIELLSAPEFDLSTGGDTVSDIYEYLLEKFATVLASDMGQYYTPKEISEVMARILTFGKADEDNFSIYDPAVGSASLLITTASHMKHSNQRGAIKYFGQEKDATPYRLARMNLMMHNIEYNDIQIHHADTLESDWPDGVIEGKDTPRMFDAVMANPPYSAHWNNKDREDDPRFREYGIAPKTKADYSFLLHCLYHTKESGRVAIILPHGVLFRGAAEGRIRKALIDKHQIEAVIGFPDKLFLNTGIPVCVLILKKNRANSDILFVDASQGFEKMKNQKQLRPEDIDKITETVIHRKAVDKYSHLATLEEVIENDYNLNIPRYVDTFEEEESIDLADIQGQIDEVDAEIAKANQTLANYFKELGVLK

For “HsdS subunit encoded by the pIL261 plasmid (orf2 of the 3.7 kb EcoRI insert from pIL103)”, the EOP (efficacy of propagation) of bIL67 phage on IL1403 transformed with pIL261, against IL1403 without plasmids in assay [1] and in assay [2] was 6e-07 throughout.

As for “HsdS subunit encoded by the pIL7 plasmid”, the EOP (efficacy of propagation) of bIL67 phage on IL1403 transformed with pIL7, against IL1403 without plasmids in assay [1] and in assay [2] was 0.006 each time.
